Patent US20140356383A1 (published 2014)

Tests used:
[1] = biological target: T1, human guanylyl cyclase C (GCC) (human, UniProt P25092 24-1073); experiment: cell-based or functional assay
[2] = biological target: T1, human guanylyl cyclase C (GCC); experiment: flow cytometry, 293 GCC #2 cells, 1 µg/ml
[3] = biological target: T1, human guanylyl cyclase C (GCC); experiment: flow cytometry, 293 GCC #2 cells, 0.25 µg/ml
[4] = biological target: T1, human guanylyl cyclase C (GCC); experiment: flow cytometry, 293 GCC #2 cells, 0.001 µg/ml
[5] = biological target: T1, human guanylyl cyclase C (GCC); experiment: flow cytometry, 293 GCC #2 cells, 0.004 µg/ml
[6] = biological target: T1, human guanylyl cyclase C (GCC); experiment: flow cytometry, 293 GCC #2 cells, 0.016 µg/ml
[7] = biological target: T1, human guanylyl cyclase C (GCC); experiment: flow cytometry, 293 GCC #2 cells, 0.063 µg/ml
[8] = biological target: T2, TOK107-hIg (hGCC-ECD/hIgG1 Fc) (human); experiment: ELISA against TOK107-hIg; antibody concentration for half maximal binding
T2 construct: Expressed in HEK293 cells; also called TOK107-hIgG; TOK107-Ig
T2 sequence (chain, as listed by the source limits assumed): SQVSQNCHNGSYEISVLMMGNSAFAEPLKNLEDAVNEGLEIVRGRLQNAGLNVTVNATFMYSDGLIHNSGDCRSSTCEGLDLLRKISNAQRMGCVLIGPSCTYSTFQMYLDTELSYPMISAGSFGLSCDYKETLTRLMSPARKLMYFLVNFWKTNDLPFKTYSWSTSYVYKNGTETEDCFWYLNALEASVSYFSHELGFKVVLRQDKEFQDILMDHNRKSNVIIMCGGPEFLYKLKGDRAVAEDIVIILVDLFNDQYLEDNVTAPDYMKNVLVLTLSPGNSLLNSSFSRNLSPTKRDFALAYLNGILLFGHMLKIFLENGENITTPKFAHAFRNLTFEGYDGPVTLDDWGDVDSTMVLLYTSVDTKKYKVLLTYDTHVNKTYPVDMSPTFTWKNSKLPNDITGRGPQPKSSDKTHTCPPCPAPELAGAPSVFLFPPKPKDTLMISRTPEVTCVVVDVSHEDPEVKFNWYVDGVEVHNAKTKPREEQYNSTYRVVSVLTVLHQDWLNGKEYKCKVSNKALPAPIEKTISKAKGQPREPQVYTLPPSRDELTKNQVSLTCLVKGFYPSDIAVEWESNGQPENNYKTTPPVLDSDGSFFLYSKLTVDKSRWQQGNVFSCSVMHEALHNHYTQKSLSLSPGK

[9] = biological target: T1, human guanylyl cyclase C (GCC); experiment: FACS with GCC-expressing cells (cell line not given); antibody concentration for half maximal binding
[10] = biological target: T2, TOK107-hIg (hGCC-ECD/hIgG1 Fc); experiment: SPR, BIACORE T100, 22 C; Prep A 5F9 immobilized on CM4 chip, GCC-ECD-Fc injected; 1:1 model; replicate A
[11] = biological target: T2, TOK107-hIg (hGCC-ECD/hIgG1 Fc); experiment: SPR, BIACORE T100, 22 C; Prep A 5F9 immobilized on CM4 chip, GCC-ECD-Fc injected; 1:1 model; replicate B
[12] = biological target: T2, TOK107-hIg (hGCC-ECD/hIgG1 Fc); experiment: SPR, BIACORE T100, 22 C; Prep A 5F9 immobilized on CM4 chip, GCC-ECD-Fc injected; 1:1 model; replicate C
[13] = biological target: T2, TOK107-hIg (hGCC-ECD/hIgG1 Fc); experiment: SPR, BIACORE T100, 22 C; Prep A 5F9 immobilized on CM4 chip, GCC-ECD-Fc injected; 1:1 model; replicate D
[14] = biological target: T2, TOK107-hIg (hGCC-ECD/hIgG1 Fc); experiment: SPR, BIACORE T100, 22 C; Prep A 5F9 immobilized on CM4 chip, GCC-ECD-Fc injected; 1:1 model; replicate E
[15] = biological target: T2, TOK107-hIg (hGCC-ECD/hIgG1 Fc); experiment: SPR, BIACORE T100, 22 C; Prep B (reference) 5F9 immobilized on CM4 chip, GCC-ECD-Fc injected; 1:1 model; replicate F
[16] = biological target: T2, TOK107-hIg (hGCC-ECD/hIgG1 Fc); experiment: SPR, BIACORE T100, 22 C; Prep B (reference) 5F9 immobilized on CM4 chip, GCC-ECD-Fc injected; 1:1 model; replicate G
[17] = biological target: T2, TOK107-hIg (hGCC-ECD/hIgG1 Fc); experiment: SPR, BIACORE T100, 22 C; Prep B (reference) 5F9 immobilized on CM4 chip, GCC-ECD-Fc injected; 1:1 model; replicate H
[18] = biological target: T2, TOK107-hIg (hGCC-ECD/hIgG1 Fc); experiment: SPR, BIACORE T100, 22 C; Prep B (reference) 5F9 immobilized on CM4 chip, GCC-ECD-Fc injected; 1:1 model; replicate I
[19] = biological target: T2, TOK107-hIg (hGCC-ECD/hIgG1 Fc); experiment: SPR, BIACORE T100, 22 C; Prep A 5F9 immobilized, GCC-ECD-Fc injected; average of replicates A-E (95% confidence interval in brackets)
[20] = biological target: T2, TOK107-hIg (hGCC-ECD/hIgG1 Fc); experiment: SPR, BIACORE T100, 22 C; Prep B (reference) 5F9 immobilized, GCC-ECD-Fc injected; average of replicates F-I (95% confidence interval in brackets)

T1 sequence (P25092 24-1073 limits assumed): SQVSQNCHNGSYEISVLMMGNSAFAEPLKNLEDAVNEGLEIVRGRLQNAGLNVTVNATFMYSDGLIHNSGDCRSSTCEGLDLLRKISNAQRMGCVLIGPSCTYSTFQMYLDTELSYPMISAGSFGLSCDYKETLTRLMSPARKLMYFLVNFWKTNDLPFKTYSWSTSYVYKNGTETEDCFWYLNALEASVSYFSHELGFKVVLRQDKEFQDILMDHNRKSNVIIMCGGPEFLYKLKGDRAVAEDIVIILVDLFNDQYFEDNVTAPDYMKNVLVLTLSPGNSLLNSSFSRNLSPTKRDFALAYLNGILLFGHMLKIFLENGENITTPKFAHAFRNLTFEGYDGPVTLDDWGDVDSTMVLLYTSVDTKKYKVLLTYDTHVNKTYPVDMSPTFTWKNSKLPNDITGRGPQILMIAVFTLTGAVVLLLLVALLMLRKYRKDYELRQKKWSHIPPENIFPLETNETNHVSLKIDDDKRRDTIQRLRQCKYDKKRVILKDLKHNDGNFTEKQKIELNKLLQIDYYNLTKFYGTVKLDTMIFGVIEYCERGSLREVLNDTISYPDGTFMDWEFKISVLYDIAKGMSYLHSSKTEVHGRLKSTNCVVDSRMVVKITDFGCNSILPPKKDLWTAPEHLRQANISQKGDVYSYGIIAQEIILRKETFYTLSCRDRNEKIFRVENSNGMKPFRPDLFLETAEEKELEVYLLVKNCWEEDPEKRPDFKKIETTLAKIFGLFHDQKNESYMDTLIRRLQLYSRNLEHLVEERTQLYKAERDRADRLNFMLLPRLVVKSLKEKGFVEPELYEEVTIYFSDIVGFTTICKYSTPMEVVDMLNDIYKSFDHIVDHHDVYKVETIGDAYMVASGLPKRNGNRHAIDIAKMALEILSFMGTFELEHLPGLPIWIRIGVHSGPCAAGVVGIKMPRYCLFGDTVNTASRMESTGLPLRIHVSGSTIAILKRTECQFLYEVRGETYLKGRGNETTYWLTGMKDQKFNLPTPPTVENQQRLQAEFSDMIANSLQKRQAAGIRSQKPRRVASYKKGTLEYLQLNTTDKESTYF

B1: 5F9 vcMMAE immunoconjugate (antibody, V domains shown)
VH: QVQLQQWGAGLLKPSETLSLTCAVFGGSFSGYYWSWIRQPPGKGLEWIGEINHRGNTNDNPSLKSRVTISVDTSKNQFALKLSSVTAADTAVYYCARERGYTYGNFDHWGQGTLVTVSS
VL: EIVMTQSPATLSVSPGERATLSCRASQSVSRNLAWYQQKPGQAPRLLIYGASTRATGIPARFSGSGSGTEFTLTIGSLQSEDFAVYYCQQYKTWPRTFGQGTNVEIK
modifications: mc-vc-MMAE linked to cysteines freed by partial reduction of interchain disulfides (outside this variable domain); average drug loading about 4 (3.6 in the described preparation)
notes: also called MLN0264; ML0264
LD 50 (nM), direct cytotoxicity, CT 26 GCC #2.5 cells [1]: > 500 nM
LD 50 (nM), direct cytotoxicity, CT 26 GCC #32 cells [1]: 267 nM
LD 50 (nM), direct cytotoxicity, HT 29 GCC #2 cells [1]: 24.1 nM
LD 50 (nM), direct cytotoxicity, HT 29 GCC #5 cells [1]: 654 nM
LD 50 (nM), direct cytotoxicity, HT 29 GCC #18 cells [1]: 555 nM
LD 50 (nM), direct cytotoxicity, HT29 GCC#5 cells [1]: 0.59 nM
MFI [2]: 7420
MFI [3]: 7300
MFI [4]: 445
MFI [5]: 696
MFI [6]: 1790
MFI [7]: 4850

B2: 5F9-mc-MMAF (antibody, V domains shown)
VH: QVQLQQWGAGLLKPSETLSLTCAVFGGSFSGYYWSWIRQPPGKGLEWIGEINHRGNTNDNPSLKSRVTISVDTSKNQFALKLSSVTAADTAVYYCARERGYTYGNFDHWGQGTLVTVSS
VL: EIVMTQSPATLSVSPGERATLSCRASQSVSRNLAWYQQKPGQAPRLLIYGASTRATGIPARFSGSGSGTEFTLTIGSLQSEDFAVYYCQQYKTWPRTFGQGTNVEIK
modifications: mc-MMAF (non-cleavable linker) linked to cysteines freed by partial reduction of interchain disulfides (outside this variable domain); average drug loading about four
LD 50 (nM), direct cytotoxicity, CT 26 GCC #2.5 cells [1]: > 10 nM
LD 50 (nM), direct cytotoxicity, CT 26 GCC #32 cells [1]: 0.064 nM
LD 50 (nM), direct cytotoxicity, HT 29 GCC #2 cells [1]: 3.1 nM
LD 50 (nM), direct cytotoxicity, HT 29 GCC #5 cells [1]: > 10000 nM
LD 50 (nM), direct cytotoxicity, HT 29 GCC #18 cells [1]: > 10000 nM
LD 50 (nM), direct cytotoxicity, HT29 GCC#5 cells [1]: > 10 nM
MFI [2]: 7580
MFI [3]: 7400
MFI [4]: 483
MFI [5]: 776
MFI [6]: 2110
MFI [7]: 5350

B3: anti-GCC human monoclonal antibody 5F9 (antibody, V domains shown)
VH: QVQLQQWGAGLLKPSETLSLTCAVFGGSFSGYYWSWIRQPPGKGLEWIGEINHRGNTNDNPSLKSRVTISVDTSKNQFALKLSSVTAADTAVYYCARERGYTYGNFDHWGQGTLVTVSS
VL: EIVMTQSPATLSVSPGERATLSCRASQSVSRNLAWYQQKPGQAPRLLIYGASTRATGIPARFSGSGSGTEFTLTIGSLQSEDFAVYYCQQYKTWPRTFGQGTNVEIK
notes: also called mAb 5F9; MAb 5F9 (Prep A)
MFI [2]: 8030
MFI [3]: 7820
MFI [4]: 500
MFI [5]: 937
MFI [6]: 2460
MFI [7]: 6620
EC50 [8]: 36.5 nM
EC50 [9]: 1.24 nM
Kd [10]: 0.112 nM
koff [10]: 1.19e-05 s⁻¹
kon [10]: 106000 M⁻¹ s⁻¹
Kd [11]: 0.0917 nM
koff [11]: 1.1e-05 s⁻¹
kon [11]: 120000 M⁻¹ s⁻¹
Kd [12]: 0.201 nM
koff [12]: 2.15e-05 s⁻¹
kon [12]: 107000 M⁻¹ s⁻¹
Kd [13]: 0.091 nM
koff [13]: 1.11e-05 s⁻¹
kon [13]: 122000 M⁻¹ s⁻¹
Kd [14]: 0.184 nM
koff [14]: 1.77e-05 s⁻¹
kon [14]: 96400 M⁻¹ s⁻¹
Kd [15]: 0.0789 nM
koff [15]: 7.64e-06 s⁻¹
kon [15]: 96800 M⁻¹ s⁻¹
Kd [16]: 0.103 nM
koff [16]: 1.24e-05 s⁻¹
kon [16]: 120000 M⁻¹ s⁻¹
Kd [17]: 0.105 nM
koff [17]: 9.57e-06 s⁻¹
kon [17]: 90900 M⁻¹ s⁻¹
Kd [18]: 0.127 nM
koff [18]: 1.54e-05 s⁻¹
kon [18]: 121000 M⁻¹ s⁻¹
Kd [19]: 0.136 nM
koff [19]: 1.46e-05 s⁻¹
kon [19]: 110000 M⁻¹ s⁻¹
Kd [20]: 0.103 nM
koff [20]: 1.13e-05 s⁻¹
kon [20]: 107000 M⁻¹ s⁻¹

B4: 5F9-vc-MMAF (antibody, V domains shown)
VH: QVQLQQWGAGLLKPSETLSLTCAVFGGSFSGYYWSWIRQPPGKGLEWIGEINHRGNTNDNPSLKSRVTISVDTSKNQFALKLSSVTAADTAVYYCARERGYTYGNFDHWGQGTLVTVSS
VL: EIVMTQSPATLSVSPGERATLSCRASQSVSRNLAWYQQKPGQAPRLLIYGASTRATGIPARFSGSGSGTEFTLTIGSLQSEDFAVYYCQQYKTWPRTFGQGTNVEIK
modifications: mc-vc-MMAF linked to cysteines freed by partial reduction of interchain disulfides (outside this variable domain); average drug loading about four
LD 50 (nM), direct cytotoxicity, CT 26 GCC #2.5 cells [1]: > 10 nM
LD 50 (nM), direct cytotoxicity, CT 26 GCC #32 cells [1]: 0.004 nM
LD 50 (nM), direct cytotoxicity, HT 29 GCC #2 cells [1]: 0.127 nM
LD 50 (nM), direct cytotoxicity, HT 29 GCC #5 cells [1]: 563 nM
LD 50 (nM), direct cytotoxicity, HT 29 GCC #18 cells [1]: > 10000 nM
MFI [2]: 7780
MFI [3]: 7560
MFI [4]: 440
MFI [5]: 707
MFI [6]: 1500
MFI [7]: 4830
